# Test results as given in US20250163158A1 (Astellas, published 2025).
# T1: integrin α11 (ITGA11) (human, UniProt Q9UKX5 23-1188)
# T1 sequence (looked up): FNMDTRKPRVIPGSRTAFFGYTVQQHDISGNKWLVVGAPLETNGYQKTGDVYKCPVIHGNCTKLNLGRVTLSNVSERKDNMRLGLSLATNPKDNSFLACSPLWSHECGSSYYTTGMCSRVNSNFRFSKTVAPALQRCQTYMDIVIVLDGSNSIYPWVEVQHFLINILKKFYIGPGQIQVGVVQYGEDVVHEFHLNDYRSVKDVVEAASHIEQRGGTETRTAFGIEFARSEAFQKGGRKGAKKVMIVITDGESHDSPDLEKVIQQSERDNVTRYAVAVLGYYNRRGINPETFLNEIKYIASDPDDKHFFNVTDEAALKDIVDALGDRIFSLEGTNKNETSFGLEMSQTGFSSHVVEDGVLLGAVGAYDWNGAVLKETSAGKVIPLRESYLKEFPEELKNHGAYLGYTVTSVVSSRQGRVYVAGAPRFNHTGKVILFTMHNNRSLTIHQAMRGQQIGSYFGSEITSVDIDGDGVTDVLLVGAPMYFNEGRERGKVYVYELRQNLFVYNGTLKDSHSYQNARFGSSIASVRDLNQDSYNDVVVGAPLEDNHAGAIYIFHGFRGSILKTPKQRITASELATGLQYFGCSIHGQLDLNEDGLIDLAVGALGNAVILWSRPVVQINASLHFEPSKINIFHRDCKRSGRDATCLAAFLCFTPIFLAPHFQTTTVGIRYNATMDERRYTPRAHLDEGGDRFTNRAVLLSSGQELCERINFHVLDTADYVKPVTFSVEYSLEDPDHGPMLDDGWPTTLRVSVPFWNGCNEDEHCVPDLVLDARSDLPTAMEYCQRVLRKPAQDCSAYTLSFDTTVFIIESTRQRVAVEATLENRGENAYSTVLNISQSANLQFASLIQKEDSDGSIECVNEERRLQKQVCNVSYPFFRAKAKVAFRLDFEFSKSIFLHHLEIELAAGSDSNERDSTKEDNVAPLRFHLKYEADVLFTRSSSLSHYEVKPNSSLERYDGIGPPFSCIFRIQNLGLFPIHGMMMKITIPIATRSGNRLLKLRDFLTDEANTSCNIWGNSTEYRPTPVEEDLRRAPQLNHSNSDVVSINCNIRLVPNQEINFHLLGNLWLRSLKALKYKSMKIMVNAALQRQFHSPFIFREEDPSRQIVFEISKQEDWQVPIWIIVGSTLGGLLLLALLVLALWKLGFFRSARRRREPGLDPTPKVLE
# B1: anti-ITGA11 antibody #014 (antibody, mouse IgG2a, kappa, V domains shown)
# VH: EVQLVESGGGLVQPGGSLRLSCAASGFNLTSSYIHWVRQAPGKGLEWVASISSHSSYTYYADSVKGRFTISADTSKNTAYLQMNSLRAEDTAVYYCARYWYYSAWALDYWGQGTLVTVSS
# VL: DIQMTQSPSSLSASVGDRVTITCRASQSVSSAVAWYQQKPGKAPKLLIYSASSLYSGVPSRFSGSRSGTDFTLTISSLQPEDFATYYCQQSAPYSSLITFGQGTKVEIKR
# Biological target: T1, integrin α11 (ITGA11)
# Assay: cell-based or functional assay
binder,measurement,value
B1,"luminescence intensity ratio, ADCC Reporter Bioassay kit, non-senescent IMR-90 cell, relative to the cell without antibody regarded as 1",1.4 ratio
same,"luminescence intensity ratio, ADCC Reporter Bioassay kit, senescent IMR-90 cell, relative to the cell without antibody regarded as 1",4.7 ratio
